Assay [1] deals with T1, Mono-ubiquitin (Sigma Aldrich) (UniProt P0CG48 1-76). Briefly: SPR (BiaCore 3000), captured via GST on anti-GST chip, mono-ubiquitin injected, steady state. (In SPR one partner is held on a chip, and binding of the other changes the refractive index at the surface.)
Description: (§1) (FIG. 4C) Mono-ubiquitin interaction with single and tandem UBA domains from hHR23A and ubiquilin1 was monitored by real-time surface plasmon resonance (SPR).
All injections were done as randomized duplicates, and each experiment was repeated in triplicate. All the experimental profiles were double referenced using the Scrubber 2.0 software (BioLogic Software), i.e. both the signals from a His6-GST-SV5 reference surface and from blank experiments (running buffer instead of protein) were subtracted. The steady-state responses (Req) were estimated by averaging the signal monitored during the last 15 seconds of each injection. The Req values were plotted against the concentration (C) of mono or tetra-ubiquitin and fitted using the following equation:
Assay [2] has as its target T1, Mono-ubiquitin (Sigma Aldrich). Put plainly: SPR (Biacore), GST fusion captured on anti-GST antibody chip (150-220 RU), mono-ubiquitin injected in a 2-fold dilution series, steady-state fit.
Protocol: as §1
To measure real-time interactions, all experiments were performed with a BiaCore 3000 instrument, at 25° C., using HBS EP (0.01 B M HEPES pH 7.4, 0.15 M NaCl, 3 mM EDTA, 0.005% surfactant P20) (BiaCore) as running buffer. Anti GST antibody (BiaCore) was covalently immobilized on a CM5 chip (carboxy methylated dextran) from BiaCore with a density of approximately 9000 resonance units (RU≈pg·mm-2), using standard amino-coupling techniques and reagents (NHS, EDC, ethanolamine) from BiaCore. Purified GST-tagged polypeptide comprising ubiquitin binding domains of p62 protein and GST were diluted in running buffer and captured to similar levels in different flow cells. Single and tandem GST-fused UBA domains were captured on the sensor chip at low (30-55 RU) and high (130-220 RU) densities.
All injections were done as randomized duplicates, and each experiment was repeated in triplicate. […] The steady-state responses (Req) were estimated by averaging the signal monitored during the last 15 seconds of each injection.

Where no end group is shown, it is not given here.

For orientation: Kd means a measure of binding affinity in units of concentration.

B1: Ubiquilin1 UBA (single UBA domain, GST-fused) (other)
chain: VNPQLQNPEVRFQQQLEQLSAMGFLNREANLQALIATGGDINAAIERLLGSQPS
modifications: not fully specified (C-terminus); also: GST-fused, PreScission protease site and His6 tag, construct limits not given here
notes: not shown: glutathione-S-transferase (GST) encoded by the pGEX-6P1 vector (Amersham); PreScission protease site and His6 tag with vector linker residues
On to B1, for which the “binding stoichiometry (molar ratio ubiquitin:UBA)” value in assay [1] worked out at 1 ubiquitin per UBA. Moreover, the Kd in assay [2] worked out at 41.3 µM.
